Laboratory results: the DeepSol protein solubility set

Experiment: soluble on expression in E. coli; label from the status in PepcDB or PDB records

Soluble on expression in E. coli, soluble:
MRRCCGDLAASRGGCEPASRNLTRTRLTFAALGRINRPAEHDREDAMTRQEARDHEPRDQDAALSRRTLVRGLALGAAATMAGPALAQTGPAAPPTTITTPPRDFGPNGAPTTYFWDPDIIAVDPSFDDLAQPNTAIKRLYTGVLWAEGPAWSAQGRYLLWSDIPNNRQMRWSEDDGRISVFRSPSNNSNGNSFDFQGRQLSCEHLTRRVTRYEHDGTATVLCDNYNGKKLNSPNDVVAHPDGSYWFTDPPYGGQLYEGEPDAAGGPSNSGGKLNPRIGQPAGFTPGKRELPTNCYRIDPSGRVDLVVTEEQVPDPNGLCFSPDFKKLYVVSTGKGPGDSGPGGKGEIFVFDVGADNKLSNQKRFSDCTIDGVKCGPDGVRCDVNGNVWASSNAGRAVGYSGVTVWSPEGKLLGRIRLPEVCGNICFGGPKRNRLFMAASQSLYAVFTATQGAGPGLEHHHHHH, MSLQGGIRFSDGIAAVADNEVITRRRLAEAVAEAKANLPKDAQISESELSRQVLMQLVNQSLIVQAGKRRNIQASEAEIDAVVAKNPALKNLSPAQRRDFADNIIAEKVRQQAVMQNSRVSEAEIDAFLEQAQKQGITLPEGAPLRQYRAQHILIKADSENAAVGAESTIRKIYGEARSGTDFSSLARQYSQDASAGNGGDLGWFADGVMVPAFEEAVHALKPGQVGAPVRTQFGWHIIKLNEVRDAGTPQERIRNSVRQYIFQQKAEQATVNLLRDLHSGAYVDIREGHHHHHH, MKTIGLLGGMSWESTIPYYRLINEGIKQQLGGLHSASLLLHSVDFHDIEVCQRRDEWDKAGDILAQAAHGLQQAGAEGIVLCTNTMHKIAHVIESRCSLPFLHIADATGRAIARQGLHRVALLGTRYTMEQDFYRGRLEQQFAIETIVPEADDRARINQVIFDELCQGTFTDASRHYYLQVIEQLAAQGAQGVIFGCTEIGLLVPQTQSALPVFDTTAIHAADAVSFMLSSSAPE, MARSFKVLSPTAILGYGFPEESFRKAMAESPDLIAVDAGSSDPGPHYLGAGKPFTDRAGVKRDLRYMITAGVQNNIPVVIGTAGGSGAAPHLEWCREIIHEIAREEHLSFSMALIPADVDKAIVHQALDNGKITALDFVPPLTHDAIDESTYIVAQMGIEPFQRALKERAQVVLGGRAYDPACFAALPIMQGFDEGLALHCGKILECAAIAATPGSGSDCAMGIIDDNGFTLKTFNPKRKFTETSAAAHTLYEKSDPYFLPGPGGVLNLKGCTFKAVNDGEVYVSGSKHEETPYALKLEGARRVGFRCLTIAGTRDPIMIAGIDKIIDEVKTSVSRNLSLDDDSIRINFHLYGKNGVMGDHEPMQTAGHELGIVLDVVAPTQEIANSVCSLVRSTMLHYGYENRIATAGNLAFPFSPSDIQGGPVYEFSIYHLIEANDALRFDFHIEQVTPEGVQA, MASMTGGQQMGRGSSTSLYKKAGLMPSPMEDIEEILITEEQLKAKVKELGEMITRDYEGKDLVLIGVLKGAIMFMSGLSRAIDLPLSIDFLAVSSYGSSTKSSGIVKIIKDHDIDIEGKDVLIVEDIIDSGLTLAYLRETLLGRKPRSLKICTILDKPERREADVKVDYCGFKIPDKFVVGYGLDYAEKYRNLPFIGVLKPELYK, SNAMKNYTLISPCFFGMEKMLAREITNLGYEIIKTEDGRITYKTDEFGIAKSNMWLRCAERVHLKIAEFEAKSFDELFENTKRINWSRYIPYGAQFPISKASSIKSKLYSTPDVQAIVKKAIVESLKKSYLEDGLLKEDKEKYPIFVFIHKDKVTISIDTTGDALHKRGYREKANKAPIRETLAAGLIYLTPWKAGRVLVDPMCGSGTILIEAAMIGINMAPGLNREFISEKWRTLDKKIWWDVRKDAFNKIDNESKFKIYGYDIDEESIDIARENAEIAGVDEYIEFNVGDATQFKSEDEFGFIITNPPYGERLEDKDSVKQLYKELGYAFRKLKNWSYYLITSYEDFEYEFGQKADKKRKLYNGMLKTNFFQYPGPKPPRNNK, MIEKVYCQEVKPELDGKKVRLAGWVYTNMRVGKKIFLWIRDSTGIVQAVVAKNVVGEETFEKAKKLGRESSVIVEGIVKADERAPGGAEVHVEKLEVIQAVSEFPIPENPEQASPELLLDYRHLHIRTPKASAIMKVKETLIMAAREWLLKDGWHEVFPPILVTGAVEGGATLFKLKYFDKYAYLSQSAQLYLEAAIFGLEKVWSLTPSFRAEKSRTRRHLTEFWHLELEAAWMDLWDIMKVEEELVSYMVQRTLELRKKEIEMFRDDLTTLKNTEPPFPRISYDEAIDILQSKGVNVEWGDDLGADEERVLTEEFDRPFFVYGYPKHIKAFYMKEDPNDPRKVLASDMLAPEGYGEIIGGSQREDDYDKLLNRILEEGMDPKDYEWYLDLRRYGSVPHSGFGLGVERLVAWVLKLDHIRWAALFPRTPARLYP

Soluble on expression in E. coli, not soluble:
MSLNAGKVVQTAKLFQDIHPEERLEKTLVDDRFAALREVIAGRTDGGQSGGGTMQIASLLTMLNEYYTQLTIADSALAAGTLPARITAADKLQLEAAKLPAPLKNILLDLTKQGTRKINAGTGDVLNTQMEAMMGDDCRDAIDGRYPFADSPQEVSAEDFNRIFASGGVLDAFWSKQLAPLADTASDPWRYKPTEGNMTLQGPDLTPFQQAKQIRSVFFNSEGGKKFSWSMQISVVDMDPAIMELVIDIDGQVLRYAHGPDRPLKVTWPGPRNGSMAEITASPRIRQDTSTLLTGGPWALFHLLDAGMVQETAVRGRQLVEYDFDGRRVVLEITAGRDFNPVSRELLQNFSCPARALEGHHHHHH, MGSDKIHHHHHHMSSSAKPLPTIERPREDASGRARVPGWVIGIDLGGTKILAGIARTQEQIIATREEPTLHGEDAPVLAQMARLITSLLSDAGALAQELDNVVIGVPSAVDPQTGLSSLSPNLALPVDRPLADLMSRFVSCPVTVENDVNLAAYGEAWAGAGQGLGSLVFVSFGTGVGMGIVLDGEPWRGAAGRAGEIAYLPVGAAPHETAPLSENGLYEDGVGTSGIRQRFTRDGGTVAELFSLARSGNEQARLAIDSVAKQASIGIAAVHALLDPAVTVIGGGIGSQPEFFTLLQAHLQPLLPFESPLKQSRLGVQAGMIGAVALALKNRVPHPEKSNAENL, MGSDKIHHHHHHMTPLAPHEASQDESAIAERIASAMPRMTPIHRRMGEFVLANPFRAATMRIDELAQAVNASIATANRFAKALGFDGYPAMRAALVRGFEATLGPVERLRSAQEQEQEQGVRGAAWIDAVFDQAIENIENTRARLDATDVEAAVEAIVGARRVLILGAGSSAFLTGLMEHGLSVCHDNVQSLALLGGPTHAARRLYTADSRDLVIALAFPRYVKDTIELARRAAARGARVLGISDGPGSPLAPVASLNLYVKAQRRFAATSEAAVLTMIEALIDAVALRTHRSAKSAAEMTEFLLPWLMQPPAALPAANPSSSGPKKS, MGSDKIHHHHHHMTGLLSKHDFRVALQEAIAGKASAKAAFSQAWMDGTLQRHHFARWAENHYHYVGPFADYLGYIYNNARDEQDGVKDLLLQSMYEFRHLQEGEAMVSHTDLLIRFAQACGTTRERVESPQACNPITRGMQAWCYATAIRESPVVATAALLVGLASQIPQIYARQIVPLRDPRVYGFSEHEVAFFALRITSDGAHAERGYRIVLDGATTPALQQRCLQFVRWGAEMRYAYAQAIYDQYVAPDLGARRVD, MSLTTSPDARWTRRRTEKQRRLEQVRTLADGVVLPTDKIVAALEALLVSGDRVVLEGNNQKQADFLSRALAKVDPGKVHDLHMIMPSVGRAEHLDLFEQGIARKLDFSFAGTQSLRISQLLEDGLLEIGAIHTYIELYSRLVVDLIPNVVLAAGFMADRAGNIYTGPSTEDTPALIEPAAFSDGIVIVQVNQLVDDVSELPRVDIPASWVDFVVVADKPFYIEPLFTRDPRHIKPVHVLMAMMAIRGIYEKHNVQSLNHGIGFNTAAIELILPTYGESLGLKGKICRNWTLNPHPTLIPAIESGWVESVHCFGTELGMENYIAARPDVFFTGRDGSLRSNRQLCQLAGQYAVDLFIGATLQVDGDGHSSTVTRGRLAGFGGAPNMGHDPRGRRHATPAWLDMRQQNESGPDAYLERGKKLVVQMVETFQEGGKPTFVETLDAVEVAKKSGMPLAPIMIYGDDVTHLLTEEGIAYLYKARSLEERQAMIAAVAGVTVIGLRHNPKDTARMRREGLIALPEDLGIRRTDASREGHHHHHH
